Laboratory results: doi:10.1101/2023.10.27.564484, “Insights into Molecular Diversity within the FET Family: Unraveling Phase Separation of the N-Terminal Low Complexity Domain from RNA-Binding Protein EWS” (bioRxiv, 2023)

B1: EWS low-complexity domain (N-terminal 264 residues of RNA-binding protein EWS) [not stated] / itself (parent)
chain: GAMASTDYSTYSQAAAQQGYSAYTAQPTQGYAQTTQAYGQQSYGTYGQPTDVSYTQAQTTATYGQTAYATSYGQPPTGYTTPTAPQAYSQPVQGYGTGAYDTTTATVTTTQASYAAQSAYGTQPAYPAYGQQPAATAPTRPQDGNKPTETSQPQSSTGGYNQPSLGYGQSNYSYPQVPGSYPMQPVTAPPSYPPTSYSSTQPTSYDQSSYSQQNTYGQPSSYGQQSSYGQQSSYGQQPPTSYPPQTGSYSQAPSQYSQQSSSYGQQ

Variants of: B1
Assay: pelleting assay (phase separation)
Conditions: with itself; 50 µM protein, 150 mM NaCl, 20 mM Tris pH 7.4; read off a plot

First: chain 1 Y174S
Second: chain 1 Y172S Y174S
The screen value of the first is lower: 0.75 for the first, 0.81 for the second.

Compared with chain 1 Y210S, chain 1 Y46S is higher in screen value: 0.5 for the first, 0.64 for the second.

In the case of chain 1 N171S, the screen value is reported as 0.6.
